Measured values as given in PMC5069622, “Crystal structure of human aldehyde dehydrogenase 1A3 complexed with NAD^+ and retinoic acid” (Scientific Reports, 2016).

Target: the molecule itself
Test: SEC; gel filtration of the purified protein, data not shown; native molecular mass of about 224000 Da

B1: human aldehyde dehydrogenase 1A3 (enzyme, UniProt P47895 1-512, looked up)
chain: MATANGAVENGQPDRKPPALPRPIRNLEVKFTKIFINNEWHESKSGKKFATCNPSTREQICEVEEGDKPDVDKAVEAAQVAFQRGSPWRRLDALSRGRLLHQLADLVERDRATLAALETMDTGKPFLHAFFIDLEGCIRTLRYFAGWADKIQGKTIPTDDNVVCFTRHEPIGVCGAITPWNFPLLMLVWKLAPALCCGNTMVLKPAEQTPLTALYLGSLIKEAGFPPGVVNIVPGFGPTVGAAISSHPQINKIAFTGSTEVGKLVKEAASRSNLKRVTLELGGKNPCIVCADADLDLAVECAHQGVFFNQGQCCTAASRVFVEEQVYSEFVRRSVEYAKKRPVGDPFDVKTEQGPQIDQKQFDKILELIESGKKEGAKLECGGSAMEDKGLFIKPTVFSEVTDNMRIAKEEIFGPVQPILKFKSIEEVIKRANSTDYGLTAAVFTKNLDKALKLASALESGTVWINCYNALYAQAPFGGFKMSGNGRELGEYALAEYTEVKTVTIKLGDKNP
notes: human ALDH1A3, full-length open reading frame amplified from cDNA of the mesenchymal glioma stem cell line 83 and cloned into pDEST17; predicted molecular weight 56108 Da; Crystallised after pre-incubation with 1 mM NAD+ and 1 mM all-trans retinoic acid; No removal of the His tag is described; In the crystal no density for the N-terminal portion and the last four residues; also called ALDH1A3; …
stoichiometry N: 4
